What was measured:
[1] = target: full-length human CD22 fused with flag and Myc tags at the C-terminus, on HEK293 or K562 cells (human) (UniProt P20273); assay: cell-based or functional assay
[2] = target: full-length human CD22 fused with flag and Myc tags at the C-terminus, on HEK293 or K562 cells (human) (UniProt P20273); assay: ELISA, IgG format; antigen format not described
[3] = target: full-length human CD22 fused with flag and Myc tags at the C-terminus, on HEK293 or K562 cells (human) (UniProt P20273); assay: FACS on CD22-expressing cells (HEK293-CD22 by the table's head), anti-hFc Alexa 488

Chain of full-length human CD22 fused with flag and Myc tags at the C-terminus, on HEK293 or K562 cells (human) (P20273 20-847): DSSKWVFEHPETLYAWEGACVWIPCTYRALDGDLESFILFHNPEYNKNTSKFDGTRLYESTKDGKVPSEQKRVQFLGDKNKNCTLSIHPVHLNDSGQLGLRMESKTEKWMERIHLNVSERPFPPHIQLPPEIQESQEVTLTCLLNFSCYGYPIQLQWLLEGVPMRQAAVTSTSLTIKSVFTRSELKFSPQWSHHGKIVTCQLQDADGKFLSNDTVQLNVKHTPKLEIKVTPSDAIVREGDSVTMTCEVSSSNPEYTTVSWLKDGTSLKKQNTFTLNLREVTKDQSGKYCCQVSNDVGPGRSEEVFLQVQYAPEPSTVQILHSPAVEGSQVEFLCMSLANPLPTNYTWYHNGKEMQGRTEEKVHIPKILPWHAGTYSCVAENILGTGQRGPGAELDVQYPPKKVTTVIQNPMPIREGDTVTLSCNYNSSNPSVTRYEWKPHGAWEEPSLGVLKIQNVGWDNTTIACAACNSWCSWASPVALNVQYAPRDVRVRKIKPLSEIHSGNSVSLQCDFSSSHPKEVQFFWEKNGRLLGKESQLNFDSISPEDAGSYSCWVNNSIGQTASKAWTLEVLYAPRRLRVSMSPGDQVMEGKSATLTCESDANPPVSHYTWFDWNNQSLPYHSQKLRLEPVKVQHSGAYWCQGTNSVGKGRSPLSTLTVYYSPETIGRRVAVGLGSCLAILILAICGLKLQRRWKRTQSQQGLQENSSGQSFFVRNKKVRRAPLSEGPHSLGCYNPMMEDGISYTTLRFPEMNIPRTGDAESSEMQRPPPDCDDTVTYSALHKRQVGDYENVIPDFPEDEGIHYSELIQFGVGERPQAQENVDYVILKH

With BL22 (anti-CD22) (antibody) the EC50 in ADCC assay (Promega ADCC Bioreporter, CD22/HEK293 target cells) [1] was 3310 pM, the T½ (Hour) of internalization, CD22/HEK293 cells, pHrodo secondary [1] was 3.95 Hour and the EC50 [2] was 4 pM. The EC50 [3] was 44 pM.

— US20220298257A1
